Source: US20210324359A1, “USE OF GRAM-NEGATIVE LYSIN-ANTIMICROBIAL PEPTIDE (AMP) POLYPEPTIDE CONSTRUCTS IN TREATING ENDOCARDITIS” (priority 2020, published 2021)
Several values for one entry are separate records, joined by “and”; a condition that tells them apart may be missing. Equal entries are not always repeated.

Experiments:
Assay type in all cases: cell-based, Pseudomonas aeruginosa
[1] = system: P. aeruginosa strain WC-453; assay: Time-kill assay in HEPES or CAA with 25% human serum (Tables 7, 8)
Procedure: Exponential phase bacteria were then pelleted and resuspended in 1/5 culture volume of 25 mM HEPES, pH 7.4 before a final adjustment to an optical density corresponding to a McFarland value of 0.5. […] All treatments were incubated at 37° C. with aeration. At time points before the addition of lysin (or buffer control) and at 1 hour and 3 hours intervals thereafter, culture samples were removed for quantitative plating on CAA agar plates.

[2] = system: P. aeruginosa isolates; assay: MIC against a range of isolates in CAA + […] human serum (Table 11)
[3] = system: outer membrane of P. aeruginosa (CFS 1292); assay: N-phenyl-1-napthylamine (NPN) uptake assay, outer membrane destabilization (Table 15); settings: NPN fluorescence, buffer = 100, lysin 100 μg/well
Procedure: The ability of gram-negative lysins to destabilize the outer membrane of P. aeruginosa was evaluated through the use of an N-phenyl-1-napthylamine (NPN) uptake assay. […] NPN was added to a final concentration of […]. […] Changes in fluorescence were recorded (excitation 1=350 nm; emission 1=420 nm) over two hours.

[4] = system: P. aeruginosa strains; assay: Checkerboard synergy with meropenem in 25% CAA and […] human serum (Table 16); settings: for FICI value (Run #1), with meropenem / FICI value (Run #2), with meropenem: 25% CAA and […] human serum
[5] = system: carbapenem-resistant P. aeruginosa strains; assay: Resensitization of carbapenem-resistant strains, combinations with imipenem or meropenem (Tables 18-22)

B1: GN121: variant lysin (SEQ ID NO: 175), also disclosed in WO 2019/118632 (protein)
chain: MTYTLSKRSLDNLKGVHPDLVAVVHRAIQLTPVDFAVIEGLRSVSRQKELVAAGASKTMNSRHLTGHAVDLAAYVNGIRWDWPLYDAIAVAVKAAAKELGVAIVWGGDWTTFKDGPHFELDRSKYRRKKTRKRLKKIGKVLKWI
In the case of B1, the “bactericidal activity (CFU decrease of 3-Log10, 3 hours after the addition of lysin)” value ([1]; 10 μg/mL, enumerated lysins in CAA/HuS, general statement for HEPES and CAA/HuS) is reported as “bactericidal activity”, the “HEPES (Log10 CFU/mL), 1 hr” value ([1]; 25 mM HEPES pH 7.4, lysin 10 μg/ml, 1 hr, WC-453) is reported as <3.7 Log10 CFU/mL and the “HEPES (Log10 CFU/mL), 3 hr” value ([1]; 25 mM HEPES pH 7.4, lysin 10 μg/ml, 3 hr, WC-453) is reported as <3.7 Log10 CFU/mL. The “CAA/HuS (Log10 CFU/mL), 1 hr” value ([1]; CAA + 25% human serum, lysin 10 μg/ml, 1 hr, WC-453) was 7.6 Log10 CFU/mL, the “CAA/HuS (Log10 CFU/mL), 3 hr” value ([1]; CAA + 25% human serum, lysin 10 μg/ml, 3 hr, WC-453) was <3.7 Log10 CFU/mL and the “activity against P. aeruginosa isolates in human serum or SURVANTA” value ([2]; Tables 11 and 12) was “active against a variety of P. aeruginosa isolates”. The “MIC, CAA + […] Human Serum” value ([2]; strain CFS 1109 (ATCC 17646)) was 0.5 µg/mL, the “MIC, CAA + […] Human Serum” value ([2]; strain CFS 1292) was 1 µg/mL and the “MIC, CAA + […] Human Serum” value ([2]; strain CFS1539 (PA1)) was 0.5 µg/mL. The “MIC, CAA + […] Human Serum” value ([2]; strain CFS 1540 (PA2)) was 0.5 µg/mL, the “MIC, CAA + […] Human Serum” value ([2]; strain CFS 1541 (PA3)) was 0.5 µg/mL and the “MIC, CAA + […] Human Serum” value ([2]; strain CFS 1557 (PA19)) was 2 µg/mL. For the same molecule, the “MIC, CAA + […] Human Serum” value ([2]; strain CFS 1558 (PA20)) was 0.5 µg/mL, the “MIC, CAA + […] Human Serum” value ([2]; strain CFS 1559 (PA21)) was 1 µg/mL and the “MIC, CAA + […] Human Serum” value ([2]; strain CFS 1560 (PA22)) was 1 µg/mL. The “MIC, CAA + […] Human Serum” value ([2]; strain CFS 1561 (PA23)) was 1 µg/mL, the “MIC, CAA + […] Human Serum” value ([2]; strain CFS 1562 (PA24)) was 1 µg/mL and the “MIC, CAA + […] Human Serum” value ([2]; strain CFS 1596 (PA26)) was 0.5 µg/mL. The “MIC, CAA + […] Human Serum” value ([2]; strain CFS 1597 (PA27)) was 0.5 µg/mL, the “MIC, CAA + […] Human Serum” value ([2]; strain CFS 1669 (PA41)) was 1 µg/mL and the “MIC, CAA + […] Human Serum” value ([2]; strain CFS 1674 (PA46)) was 0.5 µg/mL. For the same molecule, the “MIC, CAA + […] Human Serum” value ([2]; strain CFS 1675 (PA47)) was 0.5 µg/mL, the “MIC, CAA + […] Human Serum” value ([2]; strain CFS 1766 (ATCC 27853)) was 2 µg/mL and the “% RFU” value ([3]; 5 minutes) was 370 % RFU. For the same molecule, the “% RFU” value ([3]; 10 minutes) was 500 % RFU, the “% RFU” value ([3]; 20 minutes) was 528 % RFU and the “% RFU” value ([3]; 40 minutes) was 530 % RFU. For the same molecule, the “% RFU” value ([3]; 60 minutes) was 565 % RFU, the “% RFU” value ([3]; 100 minutes) was 557 % RFU and the synergy with meropenem ([4]; FICI less than or equal to 0.5 = potent synergy) was “exhibited synergy with meropenem”. The “FICI value (Run #1), with meropenem” value ([4]; strain CFS 1292) was 0.25, the “FICI value (Run #2), with meropenem” value ([4]; strain CFS 1292) was 0.292 and the “FICI value (Run #1), with meropenem” value ([4]; strain CFS 1557 (PA19)) was 0.375. The “FICI value (Run #2), with meropenem” value ([4]; strain CFS 1557 (PA19)) was 0.427, the “FICI value (Run #1), with meropenem” value ([4]; strain CFS 1558 (PA20)) was 0.125 and the “FICI value (Run #2), with meropenem” value ([4]; strain CFS 1558 (PA20)) was 0.156. The “FICI value (Run #2), with meropenem” value ([4]; strain CFS 1559 (PA21)) was 0.229, the “FICI value (Run #2), with meropenem” value ([4]; strain CFS 1560 (PA22)) was 0.313 and the “FICI value (Run #2), with meropenem” value ([4]; strain CFS 1561 (PA23)) was 0.198. For the same molecule, the “FICI value (Run #2), with meropenem” value ([4]; strain CFS 1562 (PA24)) was 0.214, the “FICI value (Run #2), with meropenem” value ([4]; strain CFS 1766 (ATCC 27853)) was 0.229 and the “resensitization to carbapenems in synergistic combinations” value ([5]; imipenem (IPM) and meropenem (MEM), carbapenem-resistant isolates) was “reductions of IPM and MEM MICS to below breakpoint values”. For the same molecule, the “lysin MIC, Combination” value ([5]; in combination with imipenem, isolate PA19) was 0.125 µg/mL, the “lysin MIC, Combination” value ([5]; in combination with imipenem, isolate PA20) was 0.25 µg/mL and the “lysin MIC, Combination” value ([5]; in combination with imipenem, isolate PA21) was 0.125 µg/mL. The “lysin MIC, Combination” value ([5]; in combination with imipenem, isolate PA22) was 0.25 µg/mL, the “lysin MIC, Combination” value ([5]; in combination with imipenem, isolate PA23) was 0.25 µg/mL and the “lysin MIC, Combination” value ([5]; in combination with imipenem, isolate PA24) was 0.125 µg/mL. For the same molecule, the “lysin MIC, Combination” value ([5]; in combination with meropenem, isolate PA19) was 0.5 µg/mL, the “lysin MIC, Combination” value ([5]; in combination with meropenem, isolate PA20) was 0.5 µg/mL and the “lysin MIC, Combination” value ([5]; in combination with meropenem, isolate PA22) was 0.25 µg/mL. For the same molecule, the “lysin MIC, Combination” value ([5]; in combination with meropenem, isolate PA23) was 0.5 µg/mL, the “lysin MIC, Combination” value ([5]; in combination with meropenem, isolate WC-452) was 0.06 µg/mL and the “MIC, Alone” value ([5]; isolate PA19) was 1 µg/mL and 2 µg/mL. For the same molecule, the “MIC, Alone” value ([5]; isolate PA20) was 1 µg/mL and 2 µg/mL, the “MIC, Alone” value ([5]; isolate PA21) was 1 µg/mL and the “MIC, Alone” value ([5]; isolate PA22) was 2 µg/mL and 1 µg/mL. For the same molecule, the “MIC, Alone” value ([5]; isolate PA23) was 1 µg/mL and 2 µg/mL, the “MIC, Alone” value ([5]; isolate PA24) was 1 µg/mL and the “MIC, Alone” value ([5]; isolate WC-452) was 1 µg/mL. The FICI ([5]; lysin + imipenem, isolate PA19) was 0.155, the FICI ([5]; lysin + imipenem, isolate PA20) was 0.265 and the FICI ([5]; lysin + imipenem, isolate PA21) was 0.155. For the same molecule, the FICI ([5]; lysin + imipenem, isolate PA22) was 0.188, the FICI ([5]; lysin + imipenem, isolate PA23) was 0.257 and the FICI ([5]; lysin + imipenem, isolate PA24) was 0.155. The FICI ([5]; lysin + meropenem, isolate PA19) was 0.281, the FICI ([5]; lysin + meropenem, isolate PA20) was 0.313 and the FICI ([5]; lysin + meropenem, isolate PA21) was 0.188. The FICI ([5]; lysin + meropenem, isolate PA22) was 0.313, the FICI ([5]; lysin + meropenem, isolate PA23) was 0.375 and the FICI ([5]; lysin + meropenem, isolate PA24) was 0.156. For the same molecule, the FICI ([5]; lysin + meropenem, isolate WC-452) was 0.123.
